Results published in paper PMC9365671, “Synergistic autoinhibition and activation mechanisms control kinesin-1 motor activity” (Cell reports, 2022).

Legend:
[1] = molecular target: the molecule itself; experiment: SEC-MALS; purified full-length KIF5 alone; BioSep SEC-s4000 column, GF150 buffer (25 mM HEPES-KOH, 150 mM KCl, 2 mM MgCl2)
[2] = molecular target: T1, KIF5B-Δhinge (Δ505-610)-mScarlet-StrepII (human, UniProt P33176 1-963, Δ505-610); experiment: TIRF microscopy on microtubules; 40 nM KIF5B (wild type, mutants or K420B) on MTs with or without 200 nM recombinant KLC1, KLC1-CC or KLC1-TPR added in trans; ATP; relative fluorescence intensity on MTs; conditions: both partners purified
T1 construct: KIF5B, human, full length with aa 505-610 deleted (aa 1-504 joined to aa 611-963); also called delta-hinge mutant; delta-hinge KHC mutant; source: Sf9 (baculovirus), purified (Streptactin XT, SEC; the fractions that eluted like the wild type were used); not shown: mScarlet, C-terminal, kept
T1 sequence (looked up): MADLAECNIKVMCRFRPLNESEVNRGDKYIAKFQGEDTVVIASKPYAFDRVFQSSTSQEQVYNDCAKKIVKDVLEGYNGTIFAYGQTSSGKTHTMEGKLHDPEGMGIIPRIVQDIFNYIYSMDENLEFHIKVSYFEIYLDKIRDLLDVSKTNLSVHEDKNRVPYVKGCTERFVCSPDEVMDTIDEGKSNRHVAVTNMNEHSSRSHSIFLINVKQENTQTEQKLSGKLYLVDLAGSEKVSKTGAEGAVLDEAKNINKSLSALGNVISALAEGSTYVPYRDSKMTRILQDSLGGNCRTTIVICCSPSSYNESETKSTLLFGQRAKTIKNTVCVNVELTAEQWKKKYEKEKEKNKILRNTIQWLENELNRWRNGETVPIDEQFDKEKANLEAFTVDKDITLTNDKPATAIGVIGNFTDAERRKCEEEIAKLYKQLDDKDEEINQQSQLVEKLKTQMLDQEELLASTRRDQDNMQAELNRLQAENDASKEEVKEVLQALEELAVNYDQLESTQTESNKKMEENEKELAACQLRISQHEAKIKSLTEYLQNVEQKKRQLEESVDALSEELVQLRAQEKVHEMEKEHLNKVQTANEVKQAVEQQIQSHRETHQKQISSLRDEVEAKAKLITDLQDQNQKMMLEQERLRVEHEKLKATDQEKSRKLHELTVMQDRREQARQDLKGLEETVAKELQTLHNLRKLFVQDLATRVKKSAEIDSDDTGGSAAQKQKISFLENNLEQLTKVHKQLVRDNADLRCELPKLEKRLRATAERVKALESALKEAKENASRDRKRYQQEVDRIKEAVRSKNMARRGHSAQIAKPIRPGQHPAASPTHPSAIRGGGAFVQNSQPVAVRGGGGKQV

| Binder | stoichiometry N [1] | binding result [2] |
| --- | --- | --- |
| full-length human KIF5C-mScarlet-StrepII (natural protein, UniProt O60282 1-957, looked up, kinesin heavy chain KIF5C, human, cDNA BC110287, full length; 2x Prescission protease sites lie between KIF5C and mScarlet; also called KHC; source: Sf9 (baculovirus), purified (Streptactin XT, SEC); also co-expressed with KLC1 and co-purified; not shown: mScarlet, C-terminal, kept) MADPAECSIKVMCRFRPLNEAEILRGDKFIPKFKGDETVVIGQGKPYVFDRVLPPNTTQEQVYNACAKQIVKDVLEGYNGTIFAYGQTSSGKTHTMEGKLHDPQLMGIIPRIAHDIFDHIYSMDENLEFHIKVSYFEIYLDKIRDLLDVSKTNLAVHEDKNRVPYVKGCTERFVSSPEEVMDVIDEGKANRHVAVTNMNEHSSRSHSIFLINIKQENVETEKKLSGKLYLVDLAGSEKVSKTGAEGAVLDEAKNINKSLSALGNVISALAEGTKTHVPYRDSKMTRILQDSLGGNCRTTIVICCSPSVFNEAETKSTLMFGQRAKTIKNTVSVNLELTAEEWKKKYEKEKEKNKTLKNVIQHLEMELNRWRNGEAVPEDEQISAKDQKNLEPCDNTPIIDNIAPVVAGISTEEKEKYDEEISSLYRQLDDKDDEINQQSQLAEKLKQQMLDQDELLASTRRDYEKIQEELTRLQIENEAAKDEVKEVLQALEELAVNYDQKSQEVEDKTRANEQLTDELAQKTTTLTTTQRELSQLQELSNHQKKRATEILNLLLKDLGEIGGIIGTNDVKTLADVNGVIEEEFTMARLYISKMKSEVKSLVNRSKQLESAQMDSNRKMNASERELAACQLLISQHEAKIKSLTDYMQNMEQKRRQLEESQDSLSEELAKLRAQEKMHEVSFQDKEKEHLTRLQDAEEMKKALEQQMESHREAHQKQLSRLRDEIEEKQKIIDEIRDLNQKLQLEQEKLSSDYNKLKIEDQEREMKLEKLLLLNDKREQAREDLKGLEETVSRELQTLHNLRKLFVQDLTTRVKKSVELDNDDGGGSAAQKQKISFLENNLEQLTKVHKQLVRDNADLRCELPKLEKRLRATAERVKALESALKEAKENAMRDRKRYQQEVDRIKEAVRAKNMARRAHSAQIAKPIRPGHYPASSPTAVHAIRGGGGSSSNSTHYQK | 2 |  |
| 6xHis-2xStrepII-sfGFP-KLC1-CC (aa 1-200) (domain or fragment, human, UniProt Q07866 1-200, looked up, kinesin light chain 1, human, aa 1-200 (N-terminal coiled-coil part); also called N-terminal domain of the KLC; source: pET28a construct (E. coli BL21-CodonPlus (DE3)-RIPL), purified (Streptactin XT, SEC on Superdex 200)) MYDNMSTMVYIKEDKLEKLTQDEIISKTKQVIQGLEALKNEHNSILQSLLETLKCLKKDDESNLVEEKSNMIRKSLEMLELGLSEAQVMMALSNHLNAVESEKQKLRAQVRRLCQENQWLRDELANTQQKLQKSEQSVAQLEEEKKHLEFMNQLKKYDDDISPSEDKDTDSTKEPLDDLFPNDEDDPGQGIQQQHSSAAA |  | binds |
